B1: anti-NSP4 antibody 5-1 (antibody, V domains shown)
VH: EVQLVESGGGLVQPGGSLRLSCAASGFTFSGSGIHWVRQAPGKGLEWVAWISPTGGNTYYADSVKGRFTISADTSKNTAYLQMNSLRAEDTAVYYCAKSLFHNVAFDYWGQGTLVTVSS
VL: DIQMTQSPSSLSASVGDRVTITCRASQDVSTAVAWYQQKPGKAPKLLIYSASFLYSGVPSRFSGSGSGTDFTLTISSLQPEDFATYYCQQSYTTPPTFGQGTKVEIKR
notes: also called Ab 5-1; Ab5-1
B2: anti-NSP4 antibody 5-3 (antibody, human IgG1, V domains shown)
VH: EVQLVESGGGLVQPGGSLRLSCAASGFTFSGNDISWVRQAPGKGLEWVAGISPYGGSTYYADSVKGRFTISADTSKNTAYLQMNSLRAEDTAVYYCARRVSFYSRHAGMDYWGQGTLVTVSS
VL: B1 VL
B3: anti-NSP4 antibody 5-4 (antibody, human IgG1, V domains shown)
VH: EVQLVESGGGLVQPGGSLRLSCAASGFTFTSYAISWVRQAPGKGLEWVAGISPSNGYTNYADSVKGRFTISADTSKNTAYLQMNSLRAEDTAVYYCARAGRWTHSDIDYWGQGTLVTVSS
VL: B1 VL
notes: also called Ab 5-4
B4: anti-NSP4 antibody 3-2 (antibody, V domains shown)
VH: EVQLVESGGGLVQPGGSLRLSCAASGFTFSDYSISWVRQAPGKGLEWVGEINPAGGATYYADSVKGRFTISADTSKNTAYLQMNSLRAEDTAVYYCARGDFPFWSDAYYVMDYWGQGTLVTVSS
VL: B1 VL
notes: also called Ab 3-2
B5: anti-NSP4 antibody 3-5 (antibody, V domains shown)
VH: EVQLVESGGGLVQPGGSLRLSCAASGFTFSDNDISWVRQAPGKGLEWVGSISPDNGDTNYADSVKGRFTISADTSKNTAYLQMNSLRAEDTAVYYCARDDVPAVFTSAMDYWGQGTLVTVSS
VL: B1 VL
notes: also called Ab 3-5; Ab35

What was measured:
[1] = target: T1, mouse NSP4 (mNSP4), form not stated in Example 6 (mouse, UniProt Q14B24 40-284, limits assumed); test: phage competition binding assay (phage IC50), soluble mNSP4 competitor
T1 construct: also called recombinant mouse NSP4; purified mouse NSP4
T1 sequence (looked up): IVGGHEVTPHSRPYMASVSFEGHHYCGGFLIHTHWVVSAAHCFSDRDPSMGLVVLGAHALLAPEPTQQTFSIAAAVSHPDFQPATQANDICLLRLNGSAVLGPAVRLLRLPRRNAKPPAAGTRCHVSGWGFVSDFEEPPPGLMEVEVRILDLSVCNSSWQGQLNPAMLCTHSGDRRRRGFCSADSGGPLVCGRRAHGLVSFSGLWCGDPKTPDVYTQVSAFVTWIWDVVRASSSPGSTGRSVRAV

[2] = target: T2, mouse zymogen NSP4 (mZ-NSP4) (mouse), Q14B24; test: BLI; no affinity; settings: chains VH:VL; remark: other sources report otherwise
T2 chain: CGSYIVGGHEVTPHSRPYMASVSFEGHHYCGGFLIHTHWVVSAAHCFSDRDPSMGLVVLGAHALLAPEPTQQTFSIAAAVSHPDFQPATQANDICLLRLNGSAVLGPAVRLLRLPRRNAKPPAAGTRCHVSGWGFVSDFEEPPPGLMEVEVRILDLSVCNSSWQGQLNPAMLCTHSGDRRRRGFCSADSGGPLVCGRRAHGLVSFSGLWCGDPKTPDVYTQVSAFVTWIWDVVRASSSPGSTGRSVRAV

[3] = target: T3, mouse active NSP4 (mA-NSP4) (mouse, UniProt Q14B24 40-284); test: competition phage ELISA (phage IC50): phage clone preincubated with soluble mA-NSP4, then on NSP4-coated wells
T3 construct: mature; Made from mZ by enteropeptidase cleavage; also called mature form of mouse NSP4
T3 sequence (looked up): T1 sequence (looked up)
Experimental: Phage at sub-saturating concentrations were first incubated with increasing concentrations of target NSP4 antigen (either hZ, hA, mZ, or mA) for 1 to 2 hour(s), and then transferred to wells coated with the same NSP4 antigen to capture the unbound phage.
Briefly, 2 ug/ml of NSP4 (hZ, hA, mZ, or mA variants) was coated on wells overnight at 4° C. in PBS supplemented with 0.5% BSA. Each individual phage clone (at 0.01 OD/ml) was purified and incubated with increasing concentrations of soluble NSP4 protein for 2 h at room temperature before being placed into wells coated with immobilized NSP4 protein for 15 min at room temperature. The wells were then washed with PBS supplemented with 0.05% Tween-20 for 10 times and developed using anti-M13 phage antibody conjugated with HRP (New England Biolabs). […] The soluble phage:antigen complex, with higher likelihood to be high-affinity phage clones, would thus be removed through successive washing steps, resulting in lower A450 signal at any given concentration of soluble antigen. Consequently, higher affinity phage clones would have a lower phage IC50 value, with a concomitant leftward-shift in the binding curves, compared to lower affinity phage clones.

[4] = target: T4, mouse zymogen NSP4 (mZ-NSP4) (mouse, UniProt Q14B24 36-284); test: competition phage ELISA (phage IC50): phage clone preincubated with soluble mZ-NSP4, then on NSP4-coated wells
T4 construct: Expressed in CHO cells; also called precursor form of mouse NSP4; not shown: N-terminal FLAG tag removable by enteropeptidase (cleavage after Asp-Asp-Asp-Asp-Lys)
T4 sequence (looked up): T2 chain

[5] = target: T5, human NSP4 (hNSP4), form not stated in Example 6 (human, UniProt Q6UWY2 34-283, limits assumed); test: phage competition binding assay (phage IC50), soluble hNSP4 competitor
T5 sequence (looked up): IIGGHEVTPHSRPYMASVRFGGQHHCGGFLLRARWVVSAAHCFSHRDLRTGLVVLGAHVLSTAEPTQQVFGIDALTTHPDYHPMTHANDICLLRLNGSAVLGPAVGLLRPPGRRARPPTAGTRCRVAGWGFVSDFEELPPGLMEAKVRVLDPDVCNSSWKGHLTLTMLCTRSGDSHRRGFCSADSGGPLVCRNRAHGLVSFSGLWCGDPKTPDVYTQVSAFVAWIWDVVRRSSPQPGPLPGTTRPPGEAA

Binder	IC50 [1] [nM]	Kd [2] [nM]	IC50 [3] [nM]	IC50 [4] [nM]	IC50 [5] [nM]
B1	18.7	> 1000	9.93		
B2		> 1000	319		
B3		> 1000	60.5		
B4				0.15	
B5	0.131			0.18	32.8

From patent US20180371107A1 (published 2018)
